{"source": "paper PMC2173631", "about": "(The Journal of Cell Biology, 2003)", "key": {"DAGLβ": {"target": "T1, DAGLβ (Mus musculus, UniProt Q91WC9)", "T1 sequence (Q91WC9 1-669)": "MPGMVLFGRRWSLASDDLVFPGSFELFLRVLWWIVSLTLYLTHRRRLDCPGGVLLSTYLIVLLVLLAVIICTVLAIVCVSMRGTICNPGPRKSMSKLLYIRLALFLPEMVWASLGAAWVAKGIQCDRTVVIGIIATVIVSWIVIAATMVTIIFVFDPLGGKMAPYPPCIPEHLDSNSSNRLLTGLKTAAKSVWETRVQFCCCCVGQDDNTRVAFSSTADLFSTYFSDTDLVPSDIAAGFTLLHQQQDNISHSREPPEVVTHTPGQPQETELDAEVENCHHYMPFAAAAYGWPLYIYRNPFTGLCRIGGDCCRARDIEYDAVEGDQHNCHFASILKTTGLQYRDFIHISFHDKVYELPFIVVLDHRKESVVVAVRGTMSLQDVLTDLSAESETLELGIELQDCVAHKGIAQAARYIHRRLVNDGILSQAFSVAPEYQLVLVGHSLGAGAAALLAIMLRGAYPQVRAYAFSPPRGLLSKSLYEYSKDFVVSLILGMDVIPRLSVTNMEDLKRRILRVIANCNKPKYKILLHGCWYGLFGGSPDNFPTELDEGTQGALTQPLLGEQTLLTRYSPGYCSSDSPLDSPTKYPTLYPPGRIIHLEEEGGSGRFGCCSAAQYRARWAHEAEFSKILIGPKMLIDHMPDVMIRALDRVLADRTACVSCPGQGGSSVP", "test": "radiolabeled DAG hydrolysis assay, homogenates of transfected COS cells", "format": "biochemical"}, "[1]": {"substrate": "CCCCC/C=C\\C/C=C\\C/C=C\\C/C=C\\CCCC(=O)O[C@@H](CO)COC(=O)CCCCCCCCCCCCCCCCC", "test": "cells, lysate or membranes"}}, "data": [{"molecule": "CCCCCCCCCCC[C@@H](C[C@@H]1OC(=O)[C@H]1CCCCCC)OC(=O)[C@H](CC(C)C)NC=O", "note": "[THL, tetrahydrolipstatin]", "values": [{"measurement": "IC50", "setting": "DAGLβ", "result": 100, "unit": "nM"}]}, {"molecule": "DAGLα (Homo sapiens) (protein) MPGIVVFRRRWSVGSDDLVLPAIFLFLLHTTWFVILSVVLFGLVYNPHEACSLNLVDHGRGYLGILLSCMIAEMAIIWLSMRGGILYTEPRDSMQYVLYVRLAILVIEFIYAIVGIVWLTQYYTSCNDLTAKNVTLGMVVCNWVVILSVCITVLCVFDPTGRTFVKLRATKRRQRNLRTYNLRHRLEEGQATSWSRRLKVFLCCTRTKDSQSDAYSEIAYLFAEFFRDLDIVPSDIIAGLVLLRQRQRAKRNAVLDEANNDILAFLSGMPVTRNTKYLDLKNSQEMLRYKEVCYYMLFALAAYGWPMYLMRKPACGLCQLARSCSCCLCPARPRFAPGVTIEEDNCCGCNAIAIRRHFLDENMTAVDIVYTSCHDAVYETPFYVAVDHDKKKVVISIRGTLSPKDALTDLTGDAERLPVEGHHGTWLGHKGMVLSAEYIKKKLEQEMVLSQAFGRDLGRGTKHYGLIVVGHSLGAGTAAILSFLLRPQYPTLKCFAYSPPGGLLSEDAMEYSKEFVTAVVLGKDLVPRIGLSQLEGFRRQLLDVLQRSTKPKWRIIVGATKCIPKSELPEEVEVTTLASTRLWTHPSDLTIALSASTPLYPPGRIIHVVHNHPAEQCCCCEQEEPTYFAIWGDNKAFNEVIISPAMLHEHLPYVVMEGLNKVLENYNKGKTALLSAAKVMVSPTEVDLTPELIFQQQPLPTGPPMPTGLALELPTADHRNSSVRSKSQSEMSLEGFSEGRLLSPVVAAAARQDPVELLLLSTQERLAAELQARRAPLATMESLSDTESLYSFDSRRSSGFRSIRGSPSLHAVLERDEGHLFYIDPAIPEENPSLSSRTELLAADSLSKHSQDTQPLEAALGSGGVTPERPPSAAANDEEEEVGGGGGGPASRGELALHNGRLGDSPSPQVLEFAEFIDSLFNLDSKSSSFQDLYCMVVPESPTSDYAEGPKSPSQQEILLRAQFEPNLVPKPPRLFAGSADPSSGISLSPSFPLSSSGELMDLTPTGLSSQECLAADKIRTSTPTGHGASPAKQDELVISAR", "values": [{"measurement": "Km", "setting": "[1]", "result": "154.7 ± 19.1", "unit": "µM"}]}, {"molecule": "DAGLβ (Mus musculus) (protein) MPGMVLFGRRWSLASDDLVFPGSFELFLRVLWWIVSLTLYLTHRRRLDCPGGVLLSTYLIVLLVLLAVIICTVLAIVCVSMRGTICNPGPRKSMSKLLYIRLALFLPEMVWASLGAAWVAKGIQCDRTVVIGIIATVIVSWIVIAATMVTIIFVFDPLGGKMAPYPPCIPEHLDSNSSNRLLTGLKTAAKSVWETRVQFCCCCVGQDDNTRVAFSSTADLFSTYFSDTDLVPSDIAAGFTLLHQQQDNISHSREPPEVVTHTPGQPQETELDAEVENCHHYMPFAAAAYGWPLYIYRNPFTGLCRIGGDCCRARDIEYDAVEGDQHNCHFASILKTTGLQYRDFIHISFHDKVYELPFIVVLDHRKESVVVAVRGTMSLQDVLTDLSAESETLELGIELQDCVAHKGIAQAARYIHRRLVNDGILSQAFSVAPEYQLVLVGHSLGAGAAALLAIMLRGAYPQVRAYAFSPPRGLLSKSLYEYSKDFVVSLILGMDVIPRLSVTNMEDLKRRILRVIANCNKPKYKILLHGCWYGLFGGSPDNFPTELDEGTQGALTQPLLGEQTLLTRYSPGYCSSDSPLDSPTKYPTLYPPGRIIHLEEEGGSGRFGCCSAAQYRARWAHEAEFSKILIGPKMLIDHMPDVMIRALDRVLADRTACVSCPGQGGSSVP", "values": [{"measurement": "Km", "setting": "[1]", "result": "74.1 ± 4.9", "unit": "µM"}]}]}
